The numbers were not newly measured in article PMC2483503, which cites them from elsewhere.

pKd: −log10 of the molar value.

Assay in all cases: ITC
On the technique in general: ITC needs no label: the signal is the heat of the interaction.

For series [1], the target named is FAK proline-rich peptide (PXXP) (Homo sapiens) (UniProt Q05397).
For series [2], the target named is FAK peptide (Homo sapiens) (UniProt Q05397).
The target in series [3] is FAK peptide FAK peptide (proline-rich and pY motifs) (Homo sapiens) (UniProt Q05397).
FAK peptide FAK peptide (proline-rich and pY motifs) (Homo sapiens), sequence (Q05397 368-403): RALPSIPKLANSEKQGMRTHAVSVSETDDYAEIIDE
The target of series [4] is CD3 zeta ITAM N-terminal pY peptide ITAM N-terminal pY peptide (Homo sapiens) (UniProt P20963).
Series [5] addresses CD3 zeta ITAM C-terminal pY peptide ITAM C-terminal pY peptide (Homo sapiens) (UniProt P20963).
Series [6] has as its target CD3 zeta ITAM bisphosphopeptide ITAM bisphosphopeptide (Homo sapiens) (UniProt P20963).

ZAP70 SH2 domains, sequence (P43403 1-259): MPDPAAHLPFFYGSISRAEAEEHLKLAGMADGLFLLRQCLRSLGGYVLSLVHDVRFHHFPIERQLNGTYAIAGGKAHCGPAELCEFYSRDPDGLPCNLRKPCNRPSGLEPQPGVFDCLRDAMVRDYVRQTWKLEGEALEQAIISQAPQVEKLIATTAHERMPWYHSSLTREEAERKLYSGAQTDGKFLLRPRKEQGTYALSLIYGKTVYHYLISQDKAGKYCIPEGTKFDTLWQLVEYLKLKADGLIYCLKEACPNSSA
Fyn SH3-SH2, sequence (P06241 82-246): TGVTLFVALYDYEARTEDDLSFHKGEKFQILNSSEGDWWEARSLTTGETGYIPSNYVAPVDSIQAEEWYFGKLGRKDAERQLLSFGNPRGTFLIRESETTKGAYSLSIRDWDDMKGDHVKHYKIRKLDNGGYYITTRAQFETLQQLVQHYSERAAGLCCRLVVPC
Fyn SH3, sequence (P06241 79-146): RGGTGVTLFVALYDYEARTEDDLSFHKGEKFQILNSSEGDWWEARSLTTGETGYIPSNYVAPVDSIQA
FAK peptide (Homo sapiens), sequence (Q05397 2-1052): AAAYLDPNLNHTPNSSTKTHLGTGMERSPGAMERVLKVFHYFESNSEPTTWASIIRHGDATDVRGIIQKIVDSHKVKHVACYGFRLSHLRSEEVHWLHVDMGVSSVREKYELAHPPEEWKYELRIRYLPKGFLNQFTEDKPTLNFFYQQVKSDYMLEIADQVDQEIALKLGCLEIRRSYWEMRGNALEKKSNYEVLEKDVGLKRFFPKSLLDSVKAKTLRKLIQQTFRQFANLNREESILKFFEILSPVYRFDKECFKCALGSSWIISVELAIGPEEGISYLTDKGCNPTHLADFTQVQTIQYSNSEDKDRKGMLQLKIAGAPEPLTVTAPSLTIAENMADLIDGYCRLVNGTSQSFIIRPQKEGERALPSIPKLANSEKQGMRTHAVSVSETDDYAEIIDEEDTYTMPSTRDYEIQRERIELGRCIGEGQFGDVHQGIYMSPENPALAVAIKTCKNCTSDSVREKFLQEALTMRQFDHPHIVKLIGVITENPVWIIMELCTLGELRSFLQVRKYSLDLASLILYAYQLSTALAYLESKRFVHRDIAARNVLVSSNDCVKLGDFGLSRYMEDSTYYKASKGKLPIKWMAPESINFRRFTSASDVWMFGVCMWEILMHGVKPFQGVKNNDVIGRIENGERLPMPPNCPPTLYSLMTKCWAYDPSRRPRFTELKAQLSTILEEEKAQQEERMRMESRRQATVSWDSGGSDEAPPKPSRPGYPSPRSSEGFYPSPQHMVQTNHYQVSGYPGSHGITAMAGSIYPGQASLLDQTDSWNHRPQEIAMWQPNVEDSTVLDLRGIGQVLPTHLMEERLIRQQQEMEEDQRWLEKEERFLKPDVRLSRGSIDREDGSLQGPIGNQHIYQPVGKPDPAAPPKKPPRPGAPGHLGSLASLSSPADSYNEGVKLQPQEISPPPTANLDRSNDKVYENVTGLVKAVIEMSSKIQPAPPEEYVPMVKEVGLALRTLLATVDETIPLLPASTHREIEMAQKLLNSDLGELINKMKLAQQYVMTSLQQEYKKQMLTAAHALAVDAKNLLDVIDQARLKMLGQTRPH

As for Fyn SH3 (from UniProt P06241), in series [1], the pKd was 4.21.

Turning to Fyn SH3-SH2 (from UniProt P06241), the pKd in series [2] and in series [3] was 6.72 in each case.

For the substance ZAP70 SH2 domains (from UniProt P43403), the pKd in series [4] is 3.85; in series [5], 3.48; in series [6], 7.49.

What is called pKd is the negative decadic logarithm of the Kd, by convention in mol/L.
